Results taken from patent US8273357B2, “Antigen-carbohydrate conjugates” (Massachusetts Institute of Technology, priority 2004, dated 2012).
“Also recorded” adds a separate entry of the source.

Tests used:
[1] = target: langerin (Homo sapiens, UniProt Q9UJ71); conditions: solid-phase binding studies; cited from earlier work
[2] = tested on: OTII T cells; assay: Adoptive transfer of OTII cells, subcutaneous immunization, FACS count of donor T cells; type: in vivo, mouse; conditions: 200 ng subcutaneous
From the text: FIGS. 6A, 6B, and 6C are a schematic diagram (FIG. 6A) and a series of flow cytometry dot plots (FIGS. 6B and 6C). FIG. 6A is a schematic diagram that illustrates the adoptive transfer technique: CD4^+CD45.2^+ ovalbumin-specific T cells are adoptively transferred to congenic CD45.1^+ recipients. After immunization the draining lymph nodes and other lymphoid organs (e.g., the spleen) are isolated. Cells from these tissues are stained with an antibody against the CD45.2 isoform and the OTII T cell receptor to identify the original donor cells. […] B6.Ly5.2/Cr mice were injected intravenously with 2×10^7 OTII splenocytes. 24 hours later the mice were injected subcutaneously with PBS, OVA (200 ng), or (OVA)-3-1 (200 ng). […] Each panel represents two or more experiments.
In order to determine the immunological implications of (OVA)-3-1 internalization and presentation by dendritic cells in vivo, the technique of adoptive transfer (FIG. 6A) was employed to track the T cell responses to DC presented antigen^15. […]
CD45.2^+ VA-specific T cells were transferred to B6.Ly5.2/Cr (CD45.1^+) recipients and, after a twenty-four hour rest period, the mice were immunized subcutaneously with PBS, OVA or (OVA)-3-1. After seventy-two hours, cells were isolated from the draining inguinal lymph nodes and counted by FACS to determine the extent of OTII cell division induced by the immunization regimen (FIG. 6B). […]

[3] = tested on: B cells and macrophages; assay: Antigen presentation with B cells and macrophages (non-dendritic cells) as antigen-presenting cells; type: cell-based, mouse; conditions: in place of purified dendritic cells
Description: (§1) FIGS. 4A, 4B, 4C and 4D are graphs showing that CD11c^+ dendritic cells are the main antigen presenting cells presenting 3-1-targeted antigen. […] 1.5×10^4 Splenic CD11c^+ dendritic cells purified from C57BL/6 mice and 3.0×10^4 purified OTII T cells were incubated with OVA (starting concentration 300 μg mL^−1) or (OVA)-3-1 (starting concentration 25 μg mL^−1) in graded doses for eight-four hours with [^3H]thymidine (1 μCi) added for the last twelve hours. […] Purified CD11c^+ dendritic cells and OTII T cells were incubated with (OVA)-3-1 (25 μg mL^−1)±each potential inhibitor (100 μg mL^−1). T cell proliferation was determined as for FIG. 4A. […] CD11c^+ dendritic cells and OTII T cells were incubated with OVA or (OVA)-3-1±lipopolysaccharide ([…]). Also included are all ‘non-dendritic cells’ (macrophages and B cells) obtained during the purification of the dendritic cells. T cell proliferation was determined as described in FIG. 4A. […] Supernatants from cells described in FIG. 4C were collected at forty-eight and seventy-two hours and measured for IFN-γ by ELISA; the values presented are from the seventy-two hour time point. All measurements here were performed in triplicate. […]

[4] = tested on: IFN-γ; assay: IFN-γ ELISA of supernatants from purified dendritic cell/OTII T cell assay; type: cell-based, mouse; conditions: average; 72 h supernatants
Description: as §1, with “point.” for “point. All measurements here were performed in triplicate.”
75-150 μL aliquots of supernatant were sampled from antigen presentation assays at 24, 48, and 72 hours. […] 25 μL of each supernatant were diluted 1:1 with PBS/1% BSA and analyzed in triplicate for IFN-γ, IL-10, and IL-4 using DuoSet ELISA reagents from R&D Systems. […]

Chain of langerin (Q9UJ71 whole entry, species assumed): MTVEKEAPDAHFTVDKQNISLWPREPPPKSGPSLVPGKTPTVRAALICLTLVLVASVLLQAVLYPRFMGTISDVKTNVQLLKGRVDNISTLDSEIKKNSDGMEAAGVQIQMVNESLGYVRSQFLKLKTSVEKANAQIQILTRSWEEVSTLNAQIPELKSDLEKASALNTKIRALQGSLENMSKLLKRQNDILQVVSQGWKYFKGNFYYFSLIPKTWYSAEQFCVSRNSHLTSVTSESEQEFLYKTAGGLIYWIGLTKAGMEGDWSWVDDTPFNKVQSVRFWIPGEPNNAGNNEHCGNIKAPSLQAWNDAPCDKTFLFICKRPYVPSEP

For “mBSA: BSA modified with approximately 25 mannose residues per protein molecule [reference compound]”, the binding by langerin [1] is given as “bound by langerin”.

B1: (OVA)-3-1: ovalbumin modified via SMCC with nonasaccharide 3-1, average of three saccharides per OVA (conjugate)
chain: GSIGAASMEFCFDVFKELKVHHANENIFYCPIAIMSALAMVYLGAKDSTRTQINKVVRFDKLPGFGDSIEAQCGTSVNVHSSLRDILNQITKPNDVYSFSLASRLYAEERYPILPEYLQCVKELYRGGLEPINFQTAADQARELINSWVESQTNGIIRNVLQPSSVDSQTAMVLVNAIVFKGLWEKAFKDEDTQAMPFRVTEQESKPVQMMYQIGLFRVASMASEKMKILELPFASGTMSMLVLLPDEVSGLEQLESIINFEKLTEWTSSNVMEERKIKVYLPRMKMEEKYNLTSVLMAMGITDVFSSSANLSGISSAESLKISQAVHAAHAEINEAGREVVGSAEAGVDAASVSEEFRADHPFLFCIKHIATNAVLFFGRCVSP
With B1 the “total OTII cell number in the draining lymph node compared to soluble OVA” value ([2]; 72 h) was “doubling; also recorded: promotes expansion”, the “total OTII cell number in the spleen” value ([2]; 3 days) was “appreciable increase” and the “T cell responses with B cells and macrophages as antigen-presenting cells” value [3] was “negligible”.

B2: ovalbumin (protein, UniProt P01012 2-386, looked up)
Ovalbumin: GSIGAASMEFCFDVFKELKVHHANENIFYCPIAIMSALAMVYLGAKDSTRTQINKVVRFDKLPGFGDSIEAQCGTSVNVHSSLRDILNQITKPNDVYSFSLASRLYAEERYPILPEYLQCVKELYRGGLEPINFQTAADQARELINSWVESQTNGIIRNVLQPSSVDSQTAMVLVNAIVFKGLWEKAFKDEDTQAMPFRVTEQESKPVQMMYQIGLFRVASMASEKMKILELPFASGTMSMLVLLPDEVSGLEQLESIINFEKLTEWTSSNVMEERKIKVYLPRMKMEEKYNLTSVLMAMGITDVFSSSANLSGISSAESLKISQAVHAAHAEINEAGREVVGSAEAGVDAASVSEEFRADHPFLFCIKHIATNAVLFFGRCVSP
notes: model antigen, unmodified
With B2 the “less IFN-γ produced by T cells responding to OVA than to (OVA)-3-1” value [4] was 40%.
